Test results taken from US20210025877A1 (CYTOMX THERAPEUTICS, published 2021).

Biological target: T1, anti-PDL1 activatable antibody PL07-2001-C5H9v2 (intact)
T1 construct: In the Wes assay the sample is separated by SDS-based capillary electrophoresis before probing; also called AA
Assay: Wes capillary electrophoresis immunoassay, mouse plasma

T1 sequence (heavy, as listed by the source, chain 1 of 2): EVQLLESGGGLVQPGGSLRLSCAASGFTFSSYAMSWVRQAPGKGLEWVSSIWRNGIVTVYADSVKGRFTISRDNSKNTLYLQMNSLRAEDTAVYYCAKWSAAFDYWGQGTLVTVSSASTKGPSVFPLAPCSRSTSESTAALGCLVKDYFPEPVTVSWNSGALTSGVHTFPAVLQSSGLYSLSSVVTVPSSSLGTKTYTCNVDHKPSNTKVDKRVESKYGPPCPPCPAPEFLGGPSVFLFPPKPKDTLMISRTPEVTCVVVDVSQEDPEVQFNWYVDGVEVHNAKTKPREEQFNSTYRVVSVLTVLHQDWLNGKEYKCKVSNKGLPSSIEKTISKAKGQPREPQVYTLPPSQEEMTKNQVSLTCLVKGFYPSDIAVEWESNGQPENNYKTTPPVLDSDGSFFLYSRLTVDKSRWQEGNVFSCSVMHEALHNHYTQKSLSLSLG
T1 sequence (light, as listed by the source, chain 2 of 2): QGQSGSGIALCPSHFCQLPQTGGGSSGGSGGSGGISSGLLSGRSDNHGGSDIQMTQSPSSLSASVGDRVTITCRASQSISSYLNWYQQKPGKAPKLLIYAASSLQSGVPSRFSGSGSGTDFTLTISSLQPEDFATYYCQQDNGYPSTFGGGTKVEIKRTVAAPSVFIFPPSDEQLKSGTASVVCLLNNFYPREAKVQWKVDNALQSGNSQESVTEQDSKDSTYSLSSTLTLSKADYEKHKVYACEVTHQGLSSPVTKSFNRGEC

B1: anti-idiotypic antibody 17G1 (antibody, mouse IgG2a, kappa, V domains shown)
VH: EVQLVESGGDLVKPGGSLKVSCAASGFTFSSYGMSWVRQTPDKRLEWVATISPSGIYTYYPVTVKGRFTISRDNAKNTLYLQMSSLKSEDTAMYFCARHHPNYGSTYLYYIDYWGQGTALTVSS
VL: NIMMTQSPSSLAVSAGEKVTMACKSSQSVFSSSNQKNYLAWYQQKPGQSPKILIYWAFTRESGVPDRFSGSGSGTDFTLTISSVQAEDLAVYYCYQYLSSLTFGAGTKLEVKA
notes: Mouse monoclonal, mIgG2a heavy chain and mouse kappa light chain; also called anti-id antibody 17G1; anti-id 17G1 antibody
**Q.** Does B1 bind?
**A.** Result: binds
